Laboratory results published in patent US20250026823A1.

Columns and labels:
[1] = target: CLEC12A expressed on cells (CLEC12A-transfected CHO cells; HL60 cells) (UniProt Q5QGZ9); test: flow cytometry on CLEC12A-transfected CHO cells
[2] = target: extracellular domain of CLEC12A (amino acids 75 to 275) coupled to a His-tag (Sino Biological, cat.no. 11896-H07H) (UniProt Q5QGZ9); test: ELISA, extracellular domain of CLEC12A coated at 2 µg/ml
[3] = target: CLEC12A expressed on cells (CLEC12A-transfected CHO cells; HL60 cells) (UniProt Q5QGZ9); test: flow cytometry on HL60 cells

CLEC12A expressed on cells (CLEC12A-transfected CHO cells; HL60 cells), sequence (Q5QGZ9 whole entry, the tested form may be a part): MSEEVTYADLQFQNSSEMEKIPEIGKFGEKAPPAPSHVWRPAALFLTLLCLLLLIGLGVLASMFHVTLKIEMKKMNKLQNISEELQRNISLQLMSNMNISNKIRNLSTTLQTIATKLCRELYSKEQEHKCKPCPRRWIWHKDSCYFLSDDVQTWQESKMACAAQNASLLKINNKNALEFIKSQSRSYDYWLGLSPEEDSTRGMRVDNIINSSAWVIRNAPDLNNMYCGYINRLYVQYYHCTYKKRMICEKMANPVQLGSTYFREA
extracellular domain of CLEC12A (amino acids 75 to 275) coupled to a His-tag (Sino Biological, cat.no. 11896-H07H), sequence (Q5QGZ9 65-265 limits assumed): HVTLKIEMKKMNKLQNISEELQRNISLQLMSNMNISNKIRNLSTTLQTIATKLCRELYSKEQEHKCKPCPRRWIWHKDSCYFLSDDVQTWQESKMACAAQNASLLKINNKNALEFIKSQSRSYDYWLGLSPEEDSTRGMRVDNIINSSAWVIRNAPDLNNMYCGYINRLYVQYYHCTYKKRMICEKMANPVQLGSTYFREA

mean fluorescent intensity [1]: 289
optical density [2]: 0.127
mean fluorescent intensity [3]: 116
Substance: irrelevant IgG1 isotype control mAb (antibody)
